Key:
[1] = biological target: T1, human serum albumin (human, UniProt P02768 25-609); assay: SPR (ProteOn), HSA on chip, DARPin conjugate as analyte, 1:1 Langmuir fit
T1 construct: also called HSA
Protocol: (§1) SPR multi-trace analyses were performed similarly as described in previous Examples.
(§2) All analytes (3-fold dilution ranging from 600-7.41 nM) were injected in succession for 240 s and dissociation was recorded for 600 s using a constant flow of 25 μl/min (HSA) or 100 μl/min (MSA) (25 μl/min).

[2] = biological target: T2, mouse serum albumin (mouse, UniProt P07724 25-608); assay: SPR (ProteOn), MSA on chip, DARPin conjugate as analyte, 1:1 Langmuir fit
T2 construct: also called MSA
Protocol: as §1, §2

[3] = biological target: T3, Dog DLL3-NTD (truncated dog DLL3, N-Terminal Domain, residues 27-189, C-terminal 6xHis and Avi-tag) (dog, UniProt A0A8I3MXZ5 27-188, biotinylated at the Avi-tag); assay: SPR (ProteOn), biotinylated dog DLL3-NTD on chip, DARPin conjugate as analyte, 1:1 Langmuir fit
T3 construct: also called dog NTD; not shown: C-terminal 6xHis and Avi-tag
T3 sequence: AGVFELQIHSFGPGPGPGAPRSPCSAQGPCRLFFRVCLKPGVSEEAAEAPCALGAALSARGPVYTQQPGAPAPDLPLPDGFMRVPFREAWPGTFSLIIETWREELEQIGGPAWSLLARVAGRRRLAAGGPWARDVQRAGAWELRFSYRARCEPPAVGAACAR
Protocol: (§3) The data were generated using BioRad ProteOn instrument in SPR running buffer (PBS, pH 7.4 containing 0.005% Tween 20©). […] The chip was coated with biotinylated target to reach a signal intensity of 1516 RU (human ECD), 257 RU (human NTD), 1500 RU (cyno ECD) and 228 RU (dog NTD). […] Each injection was followed by a regeneration step with 16 mM H₃PO₄ for 18 s. […] The obtained SPR traces were used to determine on-rate and off-rate interaction parameters.

[4] = biological target: T4, Cyno DLL3-ECD (extracellular domain of cynomolgus macaque DLL3, residues 27 to 466, Avi-tag, 3C site, Fc knob … (cynomolgus macaque, UniProt A0A2K5WSR1 27-464, biotinylated at the Avi-tag (Example 11))); assay: SPR (ProteOn), biotinylated cyno DLL3-ECD on chip, DARPin conjugate as analyte, 1:1 Langmuir fit
T4 construct: range 27-466; also called cyno ECD; cynomolgus monkey DLL3; not shown: Avi-tag, 3C protease recognition site and Fc knob into hole
T4 sequence: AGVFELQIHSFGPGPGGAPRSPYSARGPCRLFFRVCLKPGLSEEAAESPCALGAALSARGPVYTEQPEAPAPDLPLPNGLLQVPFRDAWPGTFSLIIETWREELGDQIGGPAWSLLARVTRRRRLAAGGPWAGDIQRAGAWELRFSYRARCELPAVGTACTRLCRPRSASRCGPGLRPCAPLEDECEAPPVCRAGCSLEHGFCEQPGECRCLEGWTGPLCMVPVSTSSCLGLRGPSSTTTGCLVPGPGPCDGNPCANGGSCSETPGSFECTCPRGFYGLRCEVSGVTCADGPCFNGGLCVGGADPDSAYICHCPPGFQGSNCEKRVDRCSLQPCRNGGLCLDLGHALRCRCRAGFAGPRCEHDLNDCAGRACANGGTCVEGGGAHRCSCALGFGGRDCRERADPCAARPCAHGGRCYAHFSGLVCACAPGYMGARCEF
Protocol: as §3

[5] = biological target: T5, Human DLL3-ECD (recombinant extracellular domain of human DLL3, Examples 11, 17 and 19) (human, UniProt Q9NYJ7 27-466, biotinylated at the Avi-tag where immobilised (Examples 11 and 19)); assay: SPR (ProteOn), biotinylated human DLL3-ECD on chip, DARPin conjugate as analyte, 1:1 Langmuir fit
T5 construct: also called hDLL3-ECD; human ECD; not shown: Avi-tag and Fc knob into hole (order depends on the format)
T5 sequence: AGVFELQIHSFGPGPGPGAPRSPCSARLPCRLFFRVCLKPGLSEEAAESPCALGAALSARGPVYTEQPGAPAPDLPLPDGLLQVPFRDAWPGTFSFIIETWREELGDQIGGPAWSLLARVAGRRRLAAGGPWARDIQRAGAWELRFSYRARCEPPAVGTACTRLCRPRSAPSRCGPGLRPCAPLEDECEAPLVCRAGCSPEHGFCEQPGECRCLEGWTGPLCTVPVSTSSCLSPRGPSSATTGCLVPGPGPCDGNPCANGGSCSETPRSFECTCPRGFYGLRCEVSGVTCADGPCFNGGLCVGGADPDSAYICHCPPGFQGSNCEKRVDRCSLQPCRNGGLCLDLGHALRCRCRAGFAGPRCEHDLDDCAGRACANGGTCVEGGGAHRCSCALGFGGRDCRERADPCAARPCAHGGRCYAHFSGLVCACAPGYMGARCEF
Protocol: as §3

[6] = biological target: T6, Human DLL3-NTD (truncated human DLL3, N-Terminal Domain, residues 27-189, C-terminal 6xHis and Avi-tag) (human, UniProt Q9NYJ7 27-189); assay: SPR (ProteOn), biotinylated human DLL3-NTD on chip, DARPin conjugate as analyte, 1:1 Langmuir fit
T6 construct: also called hDLL3-NTD; human NTD; not shown: C-terminal 6xHis and Avi-tag
T6 sequence: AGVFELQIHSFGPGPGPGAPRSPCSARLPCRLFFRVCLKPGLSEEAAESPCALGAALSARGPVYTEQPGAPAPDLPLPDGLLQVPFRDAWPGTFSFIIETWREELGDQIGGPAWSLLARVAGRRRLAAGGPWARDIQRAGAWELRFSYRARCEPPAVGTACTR
Protocol: as §3

[7] = biological target: T5, Human DLL3-ECD (recombinant …); assay: SPR (ProteOn), biotinylated human DLL3-ECD on chip, DARPin conjugate as analyte, 1:1 Langmuir fit (same values as Table 14)
Protocol: as §3

T2 sequence (P07724 25-608 limits assumed): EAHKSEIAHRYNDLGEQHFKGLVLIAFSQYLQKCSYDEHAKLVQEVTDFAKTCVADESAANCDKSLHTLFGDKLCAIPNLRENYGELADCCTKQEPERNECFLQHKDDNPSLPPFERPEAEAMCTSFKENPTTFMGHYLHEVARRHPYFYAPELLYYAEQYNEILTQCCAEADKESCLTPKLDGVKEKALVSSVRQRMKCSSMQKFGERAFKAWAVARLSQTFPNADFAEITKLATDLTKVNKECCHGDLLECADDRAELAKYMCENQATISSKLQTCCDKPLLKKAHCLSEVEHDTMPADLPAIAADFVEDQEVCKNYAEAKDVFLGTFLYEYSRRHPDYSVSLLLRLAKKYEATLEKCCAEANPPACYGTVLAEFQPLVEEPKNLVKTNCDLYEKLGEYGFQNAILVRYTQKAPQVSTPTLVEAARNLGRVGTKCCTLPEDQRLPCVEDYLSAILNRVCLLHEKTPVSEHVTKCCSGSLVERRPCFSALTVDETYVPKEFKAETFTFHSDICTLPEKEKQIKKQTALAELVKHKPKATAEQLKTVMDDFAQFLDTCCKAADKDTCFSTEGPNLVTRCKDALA

B1: MAM279-DOTAM (GS-MAM279-tag, SEQ ID NO: 15, conjugated to the chelator DOTAM) (designed binder)
chain: GSDLGKKLLEAARAGQDDEVRELLKAGADVNAKDYFSHTPLHLAARNGHLKIVEVLLKAGADVNAKDFAGKTPLHLAADAGHLEIVEVLLKAGADVNAQDIFGKTPADIAADAGHEDIAEVLQKAAGSPTPTPTTPTPTPTTPTPTPTGSDLGKKLLAAAAQGQDDEVRELLKAGANVNAKDLFGYTPLHLAAWRGHLEIVEVLLKAGADVNAKDAAGETPLHLAAWFGHLEIVEVLLKAGADVNAQDLQGKTPADLAAKEGHEDIAEVLQKAAGSGSC
notes: also called DOTAM-conjugated MAM279; MAM279 conjugate
Kd [1]: 98.2 nM
koff [1]: 0.021 s⁻¹
kon [1]: 213000 M⁻¹ s⁻¹
Kd [2]: 274 nM
koff [2]: 0.0425 s⁻¹
kon [2]: 155000 M⁻¹ s⁻¹
Kd [3]: 1.46 nM
koff [3]: 4.86e-05 s⁻¹
kon [3]: 33400 M⁻¹ s⁻¹
Kd [4]: 34.6 nM
koff [4]: 0.00125 s⁻¹
kon [4]: 36000 M⁻¹ s⁻¹
Kd [5]: 0.243 nM
koff [5]: 1.64e-05 s⁻¹
kon [5]: 67400 M⁻¹ s⁻¹
Kd [6]: 0.394 nM
koff [6]: 1.99e-05 s⁻¹
kon [6]: 50400 M⁻¹ s⁻¹
Kd [7]: 0.243 nM
koff [7]: 1.64e-05 s⁻¹
kon [7]: 67400 M⁻¹ s⁻¹
